Laboratory results: paper PMC7826282

Molecular target: 3xFLAG-FL-NOPCHAP1 (human) (UniProt Q8N5I9)
Test: co-IP

Sequence of 3xFLAG-FL-NOPCHAP1 (human) (Q8N5I9 whole entry): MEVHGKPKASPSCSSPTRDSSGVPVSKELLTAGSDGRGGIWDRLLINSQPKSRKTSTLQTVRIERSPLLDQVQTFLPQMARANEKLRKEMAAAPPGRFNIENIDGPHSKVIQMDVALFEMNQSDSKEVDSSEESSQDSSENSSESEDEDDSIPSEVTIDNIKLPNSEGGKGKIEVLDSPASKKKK
Sequence of RL-NOP56-WT (O00567 whole entry): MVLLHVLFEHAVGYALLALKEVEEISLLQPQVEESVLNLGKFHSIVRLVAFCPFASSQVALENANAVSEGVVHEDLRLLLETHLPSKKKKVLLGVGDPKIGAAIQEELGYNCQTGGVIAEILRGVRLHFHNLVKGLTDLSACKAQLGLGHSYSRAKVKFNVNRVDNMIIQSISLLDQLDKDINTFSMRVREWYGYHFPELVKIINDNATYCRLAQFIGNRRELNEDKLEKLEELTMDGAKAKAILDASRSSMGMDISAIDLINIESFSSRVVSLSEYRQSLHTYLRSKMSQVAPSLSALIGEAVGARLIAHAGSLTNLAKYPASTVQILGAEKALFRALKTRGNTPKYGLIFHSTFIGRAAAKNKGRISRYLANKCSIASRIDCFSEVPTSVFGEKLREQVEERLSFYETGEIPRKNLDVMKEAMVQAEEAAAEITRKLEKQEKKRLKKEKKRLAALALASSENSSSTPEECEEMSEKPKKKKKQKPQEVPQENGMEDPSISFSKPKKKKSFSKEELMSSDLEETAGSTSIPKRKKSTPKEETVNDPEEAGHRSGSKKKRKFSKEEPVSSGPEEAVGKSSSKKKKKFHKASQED

In the case of “RL-NOP56-WT (from UniProt O00567 1-594) (natural protein)”, the co-IP efficiency is reported as < 0.05%.
